Results from patent US20220289795, “EFFICIENT METHOD FOR PREPARING PPR PROTEIN AND USE OF THE SAME” (EditForce, Inc., published 2022).
Residue numbers refer to the chain shown, from its start.

Legend:
v3.1_PPR23 = target: T1, v3.1_PPR23 (Artificial Sequence); assay: ELONA; RPB-ELISA; conditions: tags: luciferase fusion; label: 5'-biotin
T1 chain: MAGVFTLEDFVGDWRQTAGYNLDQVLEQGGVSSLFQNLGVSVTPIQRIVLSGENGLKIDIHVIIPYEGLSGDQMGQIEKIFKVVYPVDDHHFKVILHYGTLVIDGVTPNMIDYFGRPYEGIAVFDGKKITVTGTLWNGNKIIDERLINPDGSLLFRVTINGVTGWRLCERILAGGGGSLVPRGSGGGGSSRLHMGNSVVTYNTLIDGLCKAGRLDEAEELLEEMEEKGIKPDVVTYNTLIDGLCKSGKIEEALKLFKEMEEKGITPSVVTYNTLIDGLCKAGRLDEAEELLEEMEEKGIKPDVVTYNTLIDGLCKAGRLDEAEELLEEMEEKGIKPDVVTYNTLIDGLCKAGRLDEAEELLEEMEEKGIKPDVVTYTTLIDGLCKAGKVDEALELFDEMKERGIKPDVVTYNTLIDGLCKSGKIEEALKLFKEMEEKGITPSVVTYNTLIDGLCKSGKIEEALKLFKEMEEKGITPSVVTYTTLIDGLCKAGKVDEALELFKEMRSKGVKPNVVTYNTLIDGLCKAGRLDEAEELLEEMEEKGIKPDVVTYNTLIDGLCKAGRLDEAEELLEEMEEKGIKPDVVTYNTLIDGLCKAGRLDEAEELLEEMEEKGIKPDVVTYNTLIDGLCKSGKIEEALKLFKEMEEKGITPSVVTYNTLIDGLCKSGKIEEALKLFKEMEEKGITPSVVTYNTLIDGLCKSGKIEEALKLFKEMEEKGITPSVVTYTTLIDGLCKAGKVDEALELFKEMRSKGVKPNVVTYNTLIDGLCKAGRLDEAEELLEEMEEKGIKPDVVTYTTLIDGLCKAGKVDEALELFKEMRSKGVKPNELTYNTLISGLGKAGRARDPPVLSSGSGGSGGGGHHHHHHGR

NL_v2_PPR23 = target: T2, NL_v2_PPR23 (Artificial Sequence); assay: ELONA; RPB-ELISA; conditions: tags: N-term luciferase, C-term 6xHis; label: 5'-biotin
T2 chain: T1 chain with K493D, K738D, K808D

v3.1_PPR24 = target: T3, v3.1_PPR24 (Artificial Sequence); assay: ELONA; RPB-ELISA; conditions: tags: luciferase fusion; label: 5'-biotin
T3 chain: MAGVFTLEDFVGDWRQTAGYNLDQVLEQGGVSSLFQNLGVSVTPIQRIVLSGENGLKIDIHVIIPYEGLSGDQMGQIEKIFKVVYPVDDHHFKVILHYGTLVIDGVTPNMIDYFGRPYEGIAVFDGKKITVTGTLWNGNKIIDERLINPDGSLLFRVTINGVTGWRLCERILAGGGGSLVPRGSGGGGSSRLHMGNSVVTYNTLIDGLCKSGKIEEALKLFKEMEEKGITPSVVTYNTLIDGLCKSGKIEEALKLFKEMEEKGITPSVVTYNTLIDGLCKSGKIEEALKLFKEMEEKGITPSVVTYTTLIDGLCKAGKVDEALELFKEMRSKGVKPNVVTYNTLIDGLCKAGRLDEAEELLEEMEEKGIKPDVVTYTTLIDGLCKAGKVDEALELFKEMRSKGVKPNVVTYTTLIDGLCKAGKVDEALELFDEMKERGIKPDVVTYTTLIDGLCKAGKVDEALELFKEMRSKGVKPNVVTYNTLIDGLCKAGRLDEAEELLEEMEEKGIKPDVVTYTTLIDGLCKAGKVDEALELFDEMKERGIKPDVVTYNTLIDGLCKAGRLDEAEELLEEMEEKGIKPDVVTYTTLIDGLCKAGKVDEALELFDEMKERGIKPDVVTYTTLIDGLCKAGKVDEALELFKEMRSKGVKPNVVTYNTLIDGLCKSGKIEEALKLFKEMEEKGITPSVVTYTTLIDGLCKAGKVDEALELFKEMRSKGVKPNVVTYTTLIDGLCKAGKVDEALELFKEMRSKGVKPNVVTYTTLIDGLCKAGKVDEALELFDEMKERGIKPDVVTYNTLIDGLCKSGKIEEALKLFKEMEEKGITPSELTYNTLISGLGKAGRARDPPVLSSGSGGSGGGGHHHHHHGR

NL_v2_PPR22 = target: T4, NL_v2_PPR22 (Artificial Sequence); assay: ELONA; RPB-ELISA; conditions: tags: N-term luciferase, C-term 6xHis; label: 5'-biotin
T4 chain: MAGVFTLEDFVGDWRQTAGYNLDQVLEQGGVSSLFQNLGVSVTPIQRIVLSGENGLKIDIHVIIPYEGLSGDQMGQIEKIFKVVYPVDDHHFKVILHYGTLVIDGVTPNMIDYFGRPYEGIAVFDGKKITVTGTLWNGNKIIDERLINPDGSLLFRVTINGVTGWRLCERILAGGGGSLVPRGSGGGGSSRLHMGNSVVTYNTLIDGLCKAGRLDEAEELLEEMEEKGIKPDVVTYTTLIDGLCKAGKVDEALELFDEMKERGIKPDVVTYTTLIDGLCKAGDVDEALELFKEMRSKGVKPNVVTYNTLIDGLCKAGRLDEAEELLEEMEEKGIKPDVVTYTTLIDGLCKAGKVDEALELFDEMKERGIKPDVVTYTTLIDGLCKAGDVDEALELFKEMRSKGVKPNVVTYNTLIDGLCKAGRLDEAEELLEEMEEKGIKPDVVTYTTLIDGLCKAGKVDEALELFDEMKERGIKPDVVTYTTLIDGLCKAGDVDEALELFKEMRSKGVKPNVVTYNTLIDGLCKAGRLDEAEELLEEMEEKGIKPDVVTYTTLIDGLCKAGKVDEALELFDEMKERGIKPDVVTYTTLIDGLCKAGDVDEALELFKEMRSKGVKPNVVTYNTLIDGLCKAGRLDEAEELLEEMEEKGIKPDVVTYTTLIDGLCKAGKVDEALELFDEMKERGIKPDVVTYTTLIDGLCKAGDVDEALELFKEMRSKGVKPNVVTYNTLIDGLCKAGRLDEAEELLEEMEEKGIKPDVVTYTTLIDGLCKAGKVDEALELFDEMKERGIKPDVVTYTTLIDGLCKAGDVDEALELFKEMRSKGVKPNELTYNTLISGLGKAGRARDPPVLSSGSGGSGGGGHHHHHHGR

v3.1_PPR22 = target: T5, v3.1_PPR22 (Artificial Sequence); assay: ELONA; RPB-ELISA; conditions: tags: luciferase fusion; label: 5'-biotin
T5 chain: T4 chain with D283K, D388K, D493K, D598K, D703K, D808K

[1] = target: MS2 coat protein (NL_MS2_HIS) (UniProt P03612 SEQ:194-322); assay: ELONA; RPB-ELISA; non-target RNA; conditions: tags: N-term luciferase, C-term 6xHis; chain copies: 2; label: 5'-biotin
Chain of MS2 coat protein (NL_MS2_HIS) (P03612 2-130): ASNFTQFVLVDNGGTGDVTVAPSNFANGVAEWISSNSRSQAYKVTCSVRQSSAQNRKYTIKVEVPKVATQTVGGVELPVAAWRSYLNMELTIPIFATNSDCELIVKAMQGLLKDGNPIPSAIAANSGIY

Binder: GACAUGCUCUUUGCCAUUUCCCAUAGACUG (ssRNA) [RNA_23]
- binding signal (v3.1_PPR23): 5.3e+07 luminescence
- binding signal (NL_v2_PPR23): 2.6e+07 luminescence

Binder: GACAUGCCCCAUAGAUGUGACAAGCGACUG (ssRNA) [RNA_24]
- binding signal (v3.1_PPR24): 5.5e+07 luminescence

Binder: GACAUGCUGAUGAUGAUGAUGAUGAGACUG (ssRNA) [RNA_22]
- binding signal (NL_v2_PPR22): 5.6e+07 luminescence
- binding signal (v3.1_PPR22): 5.5e+07 luminescence

Binder: GACAUGCUGGUGUAUCUUGUCUUUAGACUG (ssRNA) [RNA_51]
- binding result [1]: no binding
